Data taken from US20020155500A1 (CURIS, published 2002).

T1: ALK-4 (transfected cDNA, on cells) (UniProt P36896 24-505, limits assumed)
T1 construct: whole, on cells
T1 sequence (looked up): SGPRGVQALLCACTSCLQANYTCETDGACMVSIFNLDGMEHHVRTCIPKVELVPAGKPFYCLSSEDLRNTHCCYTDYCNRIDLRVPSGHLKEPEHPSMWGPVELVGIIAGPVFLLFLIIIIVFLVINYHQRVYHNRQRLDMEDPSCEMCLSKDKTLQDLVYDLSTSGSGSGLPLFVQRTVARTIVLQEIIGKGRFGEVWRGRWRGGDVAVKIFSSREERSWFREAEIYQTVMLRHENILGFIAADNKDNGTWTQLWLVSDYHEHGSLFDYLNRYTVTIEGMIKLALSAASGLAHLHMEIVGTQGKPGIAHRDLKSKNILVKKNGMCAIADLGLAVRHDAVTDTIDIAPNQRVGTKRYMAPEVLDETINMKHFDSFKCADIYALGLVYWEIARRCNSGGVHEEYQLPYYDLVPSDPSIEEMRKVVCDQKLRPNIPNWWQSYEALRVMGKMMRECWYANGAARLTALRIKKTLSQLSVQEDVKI

T2: ALK-5 (transfected cDNA, on cells) (UniProt P36897 34-503, limits assumed)
T2 construct: whole, on cells
T2 sequence (looked up): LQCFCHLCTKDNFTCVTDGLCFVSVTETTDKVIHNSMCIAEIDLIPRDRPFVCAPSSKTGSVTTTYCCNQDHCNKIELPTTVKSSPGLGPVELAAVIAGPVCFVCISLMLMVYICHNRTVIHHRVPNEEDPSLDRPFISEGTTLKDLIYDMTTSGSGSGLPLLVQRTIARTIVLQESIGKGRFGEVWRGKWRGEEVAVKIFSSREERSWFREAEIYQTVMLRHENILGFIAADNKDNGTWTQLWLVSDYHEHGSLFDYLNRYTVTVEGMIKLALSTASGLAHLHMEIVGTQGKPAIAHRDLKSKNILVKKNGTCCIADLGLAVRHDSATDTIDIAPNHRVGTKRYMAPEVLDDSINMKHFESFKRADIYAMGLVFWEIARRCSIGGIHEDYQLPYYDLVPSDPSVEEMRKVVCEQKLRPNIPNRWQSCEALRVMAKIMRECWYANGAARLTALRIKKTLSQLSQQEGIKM

T3: ALK-2 (transfected cDNA, on cells) (Homo sapiens (Human), UniProt Q04771 21-509)
T3 construct: Expressed from cDNA in COS-1 cells or in Mv1Lu R mutant cells
T3 sequence: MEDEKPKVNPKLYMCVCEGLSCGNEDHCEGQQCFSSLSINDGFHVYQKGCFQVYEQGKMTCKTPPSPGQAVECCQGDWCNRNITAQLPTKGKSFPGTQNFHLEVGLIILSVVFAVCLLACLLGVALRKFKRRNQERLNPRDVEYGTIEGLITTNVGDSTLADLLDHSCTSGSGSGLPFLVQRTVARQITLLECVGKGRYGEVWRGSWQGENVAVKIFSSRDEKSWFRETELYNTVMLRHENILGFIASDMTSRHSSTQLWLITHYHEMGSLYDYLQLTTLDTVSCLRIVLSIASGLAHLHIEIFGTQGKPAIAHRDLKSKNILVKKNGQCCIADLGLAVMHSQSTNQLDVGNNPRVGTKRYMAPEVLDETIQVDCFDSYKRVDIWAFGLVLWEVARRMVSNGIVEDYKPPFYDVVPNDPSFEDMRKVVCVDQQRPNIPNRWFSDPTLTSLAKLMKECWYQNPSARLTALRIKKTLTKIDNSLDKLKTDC


Experiments:
[1] = molecular target: T1, ALK-4 (transfected cDNA, on cells); test: affinity cross-linking of ^125I-OP1 to COS-1 cells transfected with ALK4 and daf-4 cDNA; immunoprecipitation with ALK antiserum, autoradiography
Protocol: (§1) Briefly, cells in multi-well plates were washed with binding buffer (e.g., phosphate buffered saline containing 0.9 mM CaCl₂, 0.49 mM MgCl₂ and 1 mg/ml bovine serum albumin (BSA)), incubated on ice in the same buffer with labelled ligand, in the presence and absence of excess unlabelled ligand for sufficient time for the reaction to equilibrate (e.g., 3 hours.) Cells were washed and the crosslinking was done in the binding buffer without BSA together with 0.28 mM disuccinimidyl suberate for 15 min on ice. […] Cells were centrifuged again and supernatants subjected to analysis by standard SDS-gel electrophoresis using 4%-15% polyacrylamide gels, followed by autoradiography.
(§2) The gels were fixed and dried, and then subjected to autoradiography or analysis using phosphorimager (Molecular Dynamics).
(§3) In the Table, “N/T” means “not tested”. […] The values represented by “+/−”, “+”, “++”, “+++”, and “−”, are all qualitative descriptors of the relative amount of radioactivity measured when the crosslinked molecules were gel electrophoresed and subjected to autoradiography.

[2] = molecular target: T2, ALK-5 (transfected cDNA, on cells); test: affinity cross-linking of ^125I-OP1 to COS-1 cells transfected with ALK5 and daf-4 cDNA; immunoprecipitation with ALK antiserum, autoradiography
Protocol: as §1, §2, §3

[3] = molecular target: ALK-1 (transfected cDNA, on cells) (Homo sapiens (Human), UniProt P37023 22-503); test: affinity cross-linking of ^125I-BMP4 to COS-1 cells transfected with ALK1 and daf-4 cDNA; immunoprecipitation with ALK antiserum, autoradiography
Protocol: as §1, §2, §3

[4] = molecular target: T3, ALK-2 (transfected cDNA, on cells); test: affinity cross-linking of ^125I-BMP4 to COS-1 cells transfected with ALK2 and daf-4 cDNA; immunoprecipitation with ALK antiserum, autoradiography
Protocol: as §1, §2, §3

[5] = molecular target: T1, ALK-4 (transfected cDNA, on cells); test: affinity cross-linking of ^125I-BMP4 to COS-1 cells transfected with ALK4 and daf-4 cDNA; immunoprecipitation with ALK antiserum, autoradiography
Protocol: as §1, §2, §3

[6] = molecular target: T2, ALK-5 (transfected cDNA, on cells); test: affinity cross-linking of ^125I-BMP4 to COS-1 cells transfected with ALK5 and daf-4 cDNA; immunoprecipitation with ALK antiserum, autoradiography
Protocol: as §1, §2, §3

Chain of ALK-1 (transfected cDNA, on cells) (P37023 22-503 S172T limits assumed): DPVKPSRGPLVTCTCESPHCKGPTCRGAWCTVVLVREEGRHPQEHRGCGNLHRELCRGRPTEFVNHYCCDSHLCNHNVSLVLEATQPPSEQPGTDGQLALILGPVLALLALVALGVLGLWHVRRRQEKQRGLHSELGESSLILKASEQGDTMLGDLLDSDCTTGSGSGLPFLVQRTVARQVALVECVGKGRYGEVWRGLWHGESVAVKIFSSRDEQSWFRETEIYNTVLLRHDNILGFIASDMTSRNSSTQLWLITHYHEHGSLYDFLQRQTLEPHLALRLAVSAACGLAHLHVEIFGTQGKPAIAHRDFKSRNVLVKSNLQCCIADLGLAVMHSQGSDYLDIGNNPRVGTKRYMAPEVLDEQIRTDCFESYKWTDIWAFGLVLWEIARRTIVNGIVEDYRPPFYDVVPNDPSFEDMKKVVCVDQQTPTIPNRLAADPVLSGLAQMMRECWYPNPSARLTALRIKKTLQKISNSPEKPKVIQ

| binding result [1] | binding result [2] | binding result [3] | binding result [4] | binding result [5] | binding result [6] | Binder |
| --- | --- | --- | --- | --- | --- | --- |
| no binding | no binding | – | – | – | – | OP-1 (osteogenic protein-1) (ligand, ^125I label (radioiodinated, residue not stated); unlabeled when used as competitor) STGSKQRSQNRSKTPKNQEALRMANVAENSSSDQRQACKKHELYVSFRDLGWQDWIIAPEGYAAYYCEGECAFPLNSYMNATNHAIVQTLVHFINPETVPKPCCAPTQLNAISVLYFDDSSNVILKKYRNMVVRACGCH |
| – | – | no binding | no binding | no binding | no binding | BMP-4 (ligand, UniProt P12644 293-408, looked up, ^125I label (radioiodinated, residue not stated)) SPKHHSQRARKKNKNCRRHSLYVDFSDVGWNDWIVAPPGYQAFYCHGDCPFPLADHLNSTNHAIVQTLVNSVNSSIPKACCVPTELSAISMLYLDEYDKVVLKNYQEMVVEGCGCR |
